Results on 2 molecules are retold here after patent US11813311B2, “Treatment and prevention of metabolic diseases” (Singapore Health Services PTE LTD., priority 2019, dated 2023).

Holding throughout (type): in vivo, mouse
Series [1] is described as follows: Long-term high dose preclinical toxicology of X209 and X203. Particulars: 10 mg/kg ×2/week, 5 months. The method, then: FIGS. 19A to 19J. Anti-IL-11 therapies inhibit HSC-to-myofibroblasts transformation in an ERK dependent manner and have a favourable metabolic safety profile. (A) Dose-response curve and IC50 value of X203 and X209 and ([…] to 4 μg/ml; 4-fold dilution) in inhibiting MMP2 secretion by TGFβ1-stimulated HSCs. (B) ELISA of IL-11 secretion from HSCs stimulated with various NASH factors (n≥5/group). (C) Representative fluorescence images and quantification of ACTA2^+ve cells from HSCs treated with TGFβ1 and other NASH factors in the presence of IgG, X203, or X209 (scale bars, 100 μm and dotted line represents the median value of baseline). (D) Effects of X203 and X209 on PDGF- or CCL2-induced HSC invasion. (E) Western blots of p-ERK and ERK in HSC lysates stimulated IL-11 (upper panel) or with various NASH factors in the presence of IgG or X209 (bottom panel). (F) Representative fluorescence images and quantification of ACTA2^+ve cells in HSCs treated with IL-11 and important NASH factors in the presence of ERK/MEK inhibitors U0126 or PD98059 (scale bars, 100 μm and dotted line represents the median value of baseline). (A-F) TGFβ1 (5 ng/ml), IL-11 (5 ng/ml), PDGF (20 ng/ml), AngII (100 nM), bFGF (10 ng/ml), CM (5 ng/ml), H2O2 (0.2 mM), IgG, X203 and X209 (2 μg/ml), U0126 or PD98059 (10 μM); (A,C,E-F) 24 h; (B,D) 48 h. (G) Peripheral platelet counts, (H) serum ALT levels, (I), serum triglycerides levels, and (J) serum cholesterol levels from mice injected biweekly with 10 mg/kg of X203 and X209 for 5 months (n≥5/group). (B,D) Data are shown as mean±s.d; (C,F,G-J) data are shown as box-and-whisker with median (middle line), 25th-75th percentiles (box) and min-max percentiles (whiskers). (B,D,G-J) Two-tailed Dunnett's test; (C, F) two-tailed, Tukey-corrected Student's t-test. FC: fold change.
The published literature on IL-11 in the liver is limited but injection of high dose recombinant human IL-11 into rodents has been associated with protective effects^13,14 and there is confusion as to a role for IL-11 in platelets biology^25. To exclude safety issues, the inventors performed long-term (5 months) high dose (10 mg/kg×2/week) preclinical toxicology studies of X209 and X203 and observed no effect on serum ALT levels or platelets (FIG. 19G-19H). Consistent with the data in the Il11ra^−/− mice, anti-IL-11 therapies lowered, or trended towards lowering, serum lipid levels during this treatment period (FIGS. 19I-19J).

Series [2] deals with mice with HFMCD-induced liver fibrosis. In words: HFMCD fibrosis reversal with switch to normal chow plus antibody. Particulars: for regression of Erk activation: after removal of the metabolic stimulus; for reversal of hepatic collagen content: HFMCD 10 weeks then normal chow; for Mmp2 expression / Timp1 expression: mice with severe fibrosis. The method, then: FIGS. 21A to 21L. Inhibition of Il-11 signalling reverses NASH pathologies in preclinical models and HSC-to-myofibroblast transformation. (A) Schematic showing therapeutic dosing regime in NASH reversal experiment for data shown in (B-G). Mice were fed with WDF for 16 weeks to induce NASH and then treated with (10 mg/kg) X209 or IgG for 8 weeks while they were on continuous WDF feeding. (B) Total liver hydroxyproline content, the levels of (C) liver triglycerides, (D) serum ALT, (E), fasting blood glucose, (F) serum triglycerides, and (G) serum cholesterol in mice on NC and IgG- and X209-treated WDF (n≥5/group). (H) Schematic showing reversal experiment in which fibrosis was established by feeding mice HFMCD for 10 weeks and then replacing this with NC and initiating antibody (X203 and X209) therapy. Mice were euthanized at the indicated time points. (I) Total liver hydroxyproline content (dotted line represents the mean value of NC=0.93) and (J) relative mRNA expression of Mmp2/Timp1 at 1-, 3-, 6-weeks after concurrent metabolic intervention (diet switch) and X203, X209, or IgG treatment (n≥3/group). Quantification of ACTA2^+ve immunostaining (scale bars, 200 μm) following incubation (K) with TGFβ1 or (L) with PDGF, either prior to or after the addition of X203, X209, or IgG (n=5/group). (K-L) TGFβ1 (5 ng/ml), PDGF (20 ng/ml), IgG, X203 and, X209 (2 μg/ml). (B-G, K-L) Data are shown as box-and-whisker with median (middle line), 25th-75th percentiles (box) and min-max percentiles (whiskers); (I) data are shown as mean±s.d; (J) data are represented as line chart (mean) and transparencies indicate s.d. (B) Two-tailed Student's t-test (C-G,K-L) two-tailed, Tukey-corrected Student's t-test; (I-J) two-way ANOVA. FC: fold change; NC: normal chow; WDF: Western diet+15% (w/v) fructose; HFMCD: high fat methionine- and choline-deficient.
Furthermore, combination therapies may be beneficial for reversing fibrosis in NASH′. To address these points, severe liver fibrosis was established using HFMCD for 10 weeks, then converted mice to normal chow, mimicking a robust metabolic intervention, and initiated anti-IL-11 treatments in parallel (FIG. 21H).

Series [3] in a line: Blood pharmacokinetics and biodistribution of 125I-X209. On the procedure: C57BL/6J mice (10-12-weeks old) were retro-orbitally injected (left eye) with 100 μl of freshly radiolabeled ^125I-X209 (5 μCi, 2.5 μg) in PBS. Mice were anesthetized with 2% isoflurane and blood were collected at several time points (2, 5, 10, 15, 30 m, 1, 2, 4, 6, 8 h, 1, 2, 3, 7, 14 and 21 days) post injection via submandibular bleeding. For biodistribution studies, blood was collected via cardiac puncture and tissues were harvested at the following time points: 1, 4 h, 1, 3, 7, 14, 21 days post injection. The radioactivity contents were measured using a gamma counter (2480 Wizard2, Perkin Elmer) with decay-corrections (100× dilution of 100 μl dose). The measured radioactivity was normalized to % injected dose/g tissue.

Setting [4] is: after three weeks of antibody treatment.
The mark [5] stands for this setting: at six weeks of antibody treatment.

B1: X203: mouse anti-mouse IL-11 IgG (IgG1κ), neutralising; VH SEQ ID NO:22, VL SEQ ID NO:23 (antibody, V domains shown)
VH: EVQLQQSGPELVKPGASVKIPCKASGYTFTDYNMDWVKQSHGKSLEWIGDINPHNGGPIYNQKFTGKATLTVDKSSSTAYMELRSLTSEDTAVYYCARGELGHWYFDVWGTGTTVTVSS
VL: DIVLTQSPASLAVSLGQRATISCRASKSVSTSGYSYIHWYQQKPGQPPKLLIYLASNLDSGVPARFSGSGSGTDFTLNIHPVEEEDAATYYCQHSRDLPPTFGGGTKLEIK
modifications: Enx203 VH; Enx203 VL
Take B1: in series [1], the platelets result is reported as “no effect” and the “serum ALT levels” value is listed as “no effect”. Besides, in series [2], the “regression of Erk activation” value is listed as “accelerated”, the Mmp2 expression entry is “rapidly upregulated” and the Timp1 expression entry is on record as “downregulated”. For the same molecule, in series [2] (setting [4]), the “reversal of hepatic collagen content” value is recorded as 18%. For the same molecule, in series [2] (setting [5]), the “reversal of hepatic collagen content” value worked out at 37%.

B2: X209: mouse anti-mouse IL-11Rα IgG (IgG1κ), neutralising; VH SEQ ID NO:24, VL SEQ ID NO:25 (antibody, V domains shown)
VH: QVQLQQPGAELVRPGSSVKLSCKASGYTFTNYWMHWLKQRPVQGLEWIGNIGPSDSKTHYNQKFKDKATLTVDKSSSTAYMQLNSLTSEDSAVYYCARGDYVLFTYWGQGTLVTVSA
VL: DIVLTQSPATLSLSPGERATLSCRASQSISNNLHWYQQKSHEAPRLLIKYASQSISGIPARFSGSGSGTDFTLSFSSLETEDFAVYFCQQSYSWPLTFGQGTKLEIK
modifications: Enx209 VH; Enx209 VL
Turning to B2, the liver uptake result in series [3] (125I-X209, mice) is listed as “good liver uptake”. Further, the in vivo half-life result in series [3] (125I-X209, retro-orbital injection, mice) is on record as “approximately 18 days”. In series [1], the platelets entry is “no effect” and the “serum ALT levels” value was “no effect”. In series [2], the “regression of Erk activation” value is reported as “accelerated”, the Mmp2 expression result is reported as “rapidly upregulated” and the Timp1 expression result is listed as “downregulated”. For the same molecule, in series [2] (setting [4]), the “reversal of hepatic collagen content” value worked out at 24%. Moreover, the “reversal of hepatic collagen content” value in series [2] (setting [5]) was found to be 46%.
